Experiment [1] addresses T1, FcγRIIb extracellular domain with C-terminal His tag (human, UniProt P31994 43-217).
T1 construct: extracellular domain; expressed in FreeStyle293 cells; analyte in Biacore; also called FcgRIIb; 2b
T1 sequence (looked up): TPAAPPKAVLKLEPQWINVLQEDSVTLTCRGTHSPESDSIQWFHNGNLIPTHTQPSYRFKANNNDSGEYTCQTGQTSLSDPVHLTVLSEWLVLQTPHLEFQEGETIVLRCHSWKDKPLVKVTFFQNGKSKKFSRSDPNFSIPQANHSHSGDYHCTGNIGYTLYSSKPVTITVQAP
The experiment in a line: SPR (Biacore), captured antibody, FcγR as analyte; relative binding.

The target of experiment [2] is T2, FcγRIa extracellular domain with C-terminal His tag (human, UniProt P12314 16-292).
T2 construct: extracellular domain; expressed in FreeStyle293 cells; analyte in Biacore; also called FcgRI; 1a
T2 sequence (P12314 16-292): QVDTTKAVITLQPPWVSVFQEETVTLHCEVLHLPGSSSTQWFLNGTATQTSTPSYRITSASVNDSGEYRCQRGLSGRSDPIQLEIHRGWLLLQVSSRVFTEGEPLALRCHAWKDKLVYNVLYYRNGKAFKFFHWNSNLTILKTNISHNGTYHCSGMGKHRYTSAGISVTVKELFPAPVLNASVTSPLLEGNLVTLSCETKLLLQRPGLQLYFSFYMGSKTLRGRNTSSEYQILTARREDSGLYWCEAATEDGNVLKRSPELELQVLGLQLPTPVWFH
Described as above.

B1: GpH7-A5/GpH7-B3 variant S298_07I/GpL16-k0 (antibody, human IgG1, kappa)
heavy 1: not shown
heavy 2: not shown
light: DIVMTQSPLSLPVTPGEPASISCQASESLVHSNRNTYLHWYLQKPGQSPQLLIYKVSNRFSGVPDRFSGSGSGTDFTLKISRVEAEDVGVYYCSQNTHVPPTFGQGTKVEIERTVAAPSVFIFPPSDEQLKSGTASVVCLLNNFYPREAKVQWKVDNALQSGNSQESVTEQDSKDSTYSLSSTLTLSKADYEKHKVYACEVTHQGLSSPVTKSFNRGEC
notes: He Ab; IgG1, mutation in one H chain
B1: the He/Con_2b in experiment [1] is 70.6 % of HeCon Ab (GpH7-A5/GpH7-B3/GpL16-k0 = 100). The He/Con_1a in experiment [2] is 107 % of HeCon Ab (GpH7-A5/GpH7-B3/GpL16-k0 = 100).

B2: GpH7-A5/GpH7-B3 variant Y296_01G/GpL16-k0 (antibody, human IgG1, kappa)
heavy 1: not shown
heavy 2: not shown
light: DIVMTQSPLSLPVTPGEPASISCQASESLVHSNRNTYLHWYLQKPGQSPQLLIYKVSNRFSGVPDRFSGSGSGTDFTLKISRVEAEDVGVYYCSQNTHVPPTFGQGTKVEIERTVAAPSVFIFPPSDEQLKSGTASVVCLLNNFYPREAKVQWKVDNALQSGNSQESVTEQDSKDSTYSLSSTLTLSKADYEKHKVYACEVTHQGLSSPVTKSFNRGEC
notes: as for B1
As for B2, in experiment [1], the He/Con_2b is 79.3 % of HeCon Ab (GpH7-A5/GpH7-B3/GpL16-k0 = 100). For the same molecule, in experiment [2], the He/Con_1a was 103 % of HeCon Ab (GpH7-A5/GpH7-B3/GpL16-k0 = 100).

B3: GpH7-A5/GpH7-B3 variant Y296_02A/GpL16-k0 (antibody, human IgG1, kappa)
heavy 1: not shown
heavy 2: not shown
light: DIVMTQSPLSLPVTPGEPASISCQASESLVHSNRNTYLHWYLQKPGQSPQLLIYKVSNRFSGVPDRFSGSGSGTDFTLKISRVEAEDVGVYYCSQNTHVPPTFGQGTKVEIERTVAAPSVFIFPPSDEQLKSGTASVVCLLNNFYPREAKVQWKVDNALQSGNSQESVTEQDSKDSTYSLSSTLTLSKADYEKHKVYACEVTHQGLSSPVTKSFNRGEC
notes: as for B1
For B3, the He/Con_2b in experiment [1] is 82 % of HeCon Ab (GpH7-A5/GpH7-B3/GpL16-k0 = 100). Further, the He/Con_1a in experiment [2] was 103 % of HeCon Ab (GpH7-A5/GpH7-B3/GpL16-k0 = 100).

B4: GpH7-A5/GpH7-B3 variant S298_15Y/GpL16-k0 (antibody, human IgG1, kappa)
heavy 1: not shown
heavy 2: not shown
light: DIVMTQSPLSLPVTPGEPASISCQASESLVHSNRNTYLHWYLQKPGQSPQLLIYKVSNRFSGVPDRFSGSGSGTDFTLKISRVEAEDVGVYYCSQNTHVPPTFGQGTKVEIERTVAAPSVFIFPPSDEQLKSGTASVVCLLNNFYPREAKVQWKVDNALQSGNSQESVTEQDSKDSTYSLSSTLTLSKADYEKHKVYACEVTHQGLSSPVTKSFNRGEC
notes: as for B1
B4: the He/Con_2b in experiment [1] is 61.4 % of HeCon Ab (GpH7-A5/GpH7-B3/GpL16-k0 = 100). Besides, the He/Con_1a in experiment [2] is 107 % of HeCon Ab (GpH7-A5/GpH7-B3/GpL16-k0 = 100).

B5: GpH7-A5/GpH7-B3 variant S298_18N/GpL16-k0 (antibody, human IgG1, kappa)
heavy 1: not shown
heavy 2: not shown
light: DIVMTQSPLSLPVTPGEPASISCQASESLVHSNRNTYLHWYLQKPGQSPQLLIYKVSNRFSGVPDRFSGSGSGTDFTLKISRVEAEDVGVYYCSQNTHVPPTFGQGTKVEIERTVAAPSVFIFPPSDEQLKSGTASVVCLLNNFYPREAKVQWKVDNALQSGNSQESVTEQDSKDSTYSLSSTLTLSKADYEKHKVYACEVTHQGLSSPVTKSFNRGEC
notes: as for B1
On to B5, for which the He/Con_2b in experiment [1] is 48.1 % of HeCon Ab (GpH7-A5/GpH7-B3/GpL16-k0 = 100). In addition, the He/Con_1a in experiment [2] was 108 % of HeCon Ab (GpH7-A5/GpH7-B3/GpL16-k0 = 100).

B6: GpH7-A5/GpH7-B3 variant S298_20W/GpL16-k0 (antibody, human IgG1, kappa)
heavy 1: not shown
heavy 2: not shown
light: DIVMTQSPLSLPVTPGEPASISCQASESLVHSNRNTYLHWYLQKPGQSPQLLIYKVSNRFSGVPDRFSGSGSGTDFTLKISRVEAEDVGVYYCSQNTHVPPTFGQGTKVEIERTVAAPSVFIFPPSDEQLKSGTASVVCLLNNFYPREAKVQWKVDNALQSGNSQESVTEQDSKDSTYSLSSTLTLSKADYEKHKVYACEVTHQGLSSPVTKSFNRGEC
notes: as for B1
Turning to B6, the He/Con_2b in experiment [1] is 41.1 % of HeCon Ab (GpH7-A5/GpH7-B3/GpL16-k0 = 100). Also, the He/Con_1a in experiment [2] is 104 % of HeCon Ab (GpH7-A5/GpH7-B3/GpL16-k0 = 100).

B7: GpH7-A5/GpH7-B3 variant S298_12R/GpL16-k0 (antibody, human IgG1, kappa)
heavy 1: not shown
heavy 2: not shown
light: DIVMTQSPLSLPVTPGEPASISCQASESLVHSNRNTYLHWYLQKPGQSPQLLIYKVSNRFSGVPDRFSGSGSGTDFTLKISRVEAEDVGVYYCSQNTHVPPTFGQGTKVEIERTVAAPSVFIFPPSDEQLKSGTASVVCLLNNFYPREAKVQWKVDNALQSGNSQESVTEQDSKDSTYSLSSTLTLSKADYEKHKVYACEVTHQGLSSPVTKSFNRGEC
notes: as for B1
Consider B7, for which the He/Con_2b in experiment [1] was 57.8 % of HeCon Ab (GpH7-A5/GpH7-B3/GpL16-k0 = 100). The He/Con_1a in experiment [2] was 109 % of HeCon Ab (GpH7-A5/GpH7-B3/GpL16-k0 = 100).

B8: GpH7-A5/GpH7-B3 variant Y296_03V/GpL16-k0 (antibody, human IgG1, kappa)
heavy 1: not shown
heavy 2: not shown
light: DIVMTQSPLSLPVTPGEPASISCQASESLVHSNRNTYLHWYLQKPGQSPQLLIYKVSNRFSGVPDRFSGSGSGTDFTLKISRVEAEDVGVYYCSQNTHVPPTFGQGTKVEIERTVAAPSVFIFPPSDEQLKSGTASVVCLLNNFYPREAKVQWKVDNALQSGNSQESVTEQDSKDSTYSLSSTLTLSKADYEKHKVYACEVTHQGLSSPVTKSFNRGEC
notes: as for B1
Take B8: in experiment [1], the He/Con_2b was 79.3 % of HeCon Ab (GpH7-A5/GpH7-B3/GpL16-k0 = 100). The He/Con_1a in experiment [2] is 104 % of HeCon Ab (GpH7-A5/GpH7-B3/GpL16-k0 = 100).

B9: GpH7-A5/GpH7-B3 variant S324_03V/GpL16-k0 (antibody, human IgG1, kappa)
heavy 1: not shown
heavy 2: not shown
light: DIVMTQSPLSLPVTPGEPASISCQASESLVHSNRNTYLHWYLQKPGQSPQLLIYKVSNRFSGVPDRFSGSGSGTDFTLKISRVEAEDVGVYYCSQNTHVPPTFGQGTKVEIERTVAAPSVFIFPPSDEQLKSGTASVVCLLNNFYPREAKVQWKVDNALQSGNSQESVTEQDSKDSTYSLSSTLTLSKADYEKHKVYACEVTHQGLSSPVTKSFNRGEC
notes: as for B1
As for B9, the He/Con_2b in experiment [1] is 97.8 % of HeCon Ab (GpH7-A5/GpH7-B3/GpL16-k0 = 100). In addition, the He/Con_1a in experiment [2] was 104 % of HeCon Ab (GpH7-A5/GpH7-B3/GpL16-k0 = 100).

The values are drawn from patent US20150344570A1 (published 2015).
